Positions count from the first letter of the chain named.
T1: hAPLNR (Homo sapiens, UniProt P35414)
T1 sequence (P35414 1-380): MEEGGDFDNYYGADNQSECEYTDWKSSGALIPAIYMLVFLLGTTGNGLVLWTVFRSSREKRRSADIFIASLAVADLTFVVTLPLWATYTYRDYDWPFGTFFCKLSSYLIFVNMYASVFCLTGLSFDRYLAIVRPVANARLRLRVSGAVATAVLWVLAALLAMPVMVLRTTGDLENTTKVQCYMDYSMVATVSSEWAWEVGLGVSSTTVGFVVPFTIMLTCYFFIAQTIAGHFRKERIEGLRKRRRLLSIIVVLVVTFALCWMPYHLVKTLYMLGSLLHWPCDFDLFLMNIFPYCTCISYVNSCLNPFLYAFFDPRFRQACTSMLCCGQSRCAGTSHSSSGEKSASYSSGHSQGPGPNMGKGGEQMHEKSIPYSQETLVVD

B1: H2aM9227N: anti-APLNR antibody, HCVR/LCVR SEQ ID NO: 50/58, mouse IgG2a Fc (antibody, V domains shown)
VH: EVQLVESGGGLVQPGGSLRLSCAASGFTFSSFWMSWVRQVPGKGLEWVANIKQDGSEKYYVDSVKGRFTISRDNAKNSLYLQMNSLRAEDTAVYYCARDRFGYSFYDKGVRYYYGMDVWGQGTTVTVSS
VL: DIQMTQSPSSLSVSVGDRVTITCRASQGIRNDLGWYQQKPGKAPKRLIYATSSLQSGVPSRFSGSGSGTEFTLTISGLQPEDFATYYCLQHNSYPRTFGQGTKVEIK
modifications: mouse IgG2a Fc
B2: H2aM9230N: anti-APLNR antibody, HCVR/LCVR SEQ ID NO: 82/90, mouse IgG2a Fc (antibody, V domains shown)
VH: B1 VH with E46Q, F105V
VL: B1 VL with T51A, P80S, N92K
modifications: mouse IgG2a Fc
B3: H2aM9222N: anti-APLNR antibody, HCVR/LCVR SEQ ID NO: 34/42, mouse IgG2a Fc (antibody, V domains shown)
VH: B1 VH with S31N, F32Y, V40A, K58R, D62G, D73G, N74D, K76E, F105A
VL: B1 VL with V13A, T51A, G77S
modifications: mouse IgG2a Fc
B4: H2aM9228N: anti-APLNR antibody, HCVR/LCVR SEQ ID NO: 66/74, mouse IgG2a Fc (antibody, V domains shown)
VH: B1 VH with S31N, F32Y, Q39L, V40A, K58R, D62G, D73G, N74D, F105A, Y106F
VL: B1 VL with V13A, T51A, G77S
modifications: mouse IgG2a Fc
B5: H1M9207N: anti-APLNR antibody, HCVR/LCVR SEQ ID NO: 2/10, mouse IgG1 Fc (antibody, V domains shown)
VH: EVQLVESGGGLAQPGGSLRLSCAASGFTFSNYWMSWVRQAPGKGLEWVANIKQDGSEKYYLESVKGRFTISRDNAKNLLYLQMNSLRAEDTAVFYCARPGLLRFLEPGRRYYSGMNVWGQGTTVTVSS
VL: DIQLTQSPSFLSASVGDRVTITCWASQGIRSYLAWYQQKPGKAPKLLIYAASTLQSGVPSRFSGSGSGTEFTLTISSLQPEDFATYYCQQFNSYPWTFGQGTKVEIK
modifications: mouse IgG1 Fc
B6: H4H9113P: anti-APLNR antibody, HCVR/LCVR SEQ ID NO: 210/218, human IgG4 Fc (antibody, V domains shown)
VH: QVQLVQSGAEVKKPGASVEVSCKASGYTFTDYYIHWIRQAPGQGLEWMGWINPDSGRTNYAQKFQVRVTMTRDTSITTAYMELNRLKSDDTAVYYCARGPLRGYSGYDFFDYWGQGTLVTVSS
VL: B1 VL with V13A, K45N, T51A, G77S, Q79H, Y87S, Y94F, R96L, Q100G
modifications: human IgG4 Fc
B7: H4H9101P: anti-APLNR antibody, HCVR/LCVR SEQ ID NO: 146/154, human IgG4 Fc (antibody, V domains shown)
VH: B6 VH
VL: B5 VL with R30S, T85S, Y87F, F91L, Y94N, W96R
modifications: human IgG4 Fc
B8: H4H9112P: anti-APLNR antibody, HCVR/LCVR SEQ ID NO: 194/202, human IgG4 Fc (antibody, V domains shown)
VH: B6 VH
VL: DIQMTQSPSSLSAFVGDRVTITCRASQSISSYLNWYQQKPGKAPKLLIYTASTLQRGVPSRFRGSGSGTDFTLTISSLQPEDFATYYCHQTYSIPITFGQGTRLEIK
modifications: human IgG4 Fc
B9: H4H9103P: anti-APLNR antibody, HCVR/LCVR SEQ ID NO: 162/170, human IgG4 Fc (antibody, V domains shown)
VH: EVQLVESGGGLVQPGRSLRLSCAASGFTFDDYAMHWVRQVPGKGLEWVSGITWNSGDIGYADSVKGRFTISRDNAKNSLYLQMNSLRAEDTALYYCTKDKDSSGYYGIDVWGQGTTVTVSS
VL: DIQMTQSPSSVSASVGDRVTITCRASQGIRTWLAWYQQKPGKAPKLLIYAASSLQSGVPSRFSGSESGTDFTLTISSLQPEDFATYYCQQANSFPFTFGPGTKVDIK
modifications: human IgG4 Fc
B10: H4H9104P: anti-APLNR antibody, HCVR/LCVR SEQ ID NO: 178/186, human IgG4 Fc (antibody, V domains shown)
VH: QVQLVESGGDLVKPGGSLRLSCAASGFTFSDYYMNWIRQAPGKGLEWVSYISSSGSTIHYADSVKGRFTISRDNAKNLVYLRMNSLRAEDTAVYFCAREREVHDYSDPYFFFYGMDVWGQGTTVTVSS
VL: DIQMTQSPSSVSASVGDRVTITCRASQDVSSWLAWYQHKPGKAPKLLIFAASSLQSGVPSRFSGSGSGTDFTLTISSLQSEDFATYYCQQANSFPLTFGGGTKVEIK
modifications: human IgG4 Fc

These molecules were tested on HEK293 parental cells (assay: FACS binding to HEK293 parental cells). Details: Table 3; 10 μg/mL antibody; anti-mouse IgG Alexa 647.
Method: Binding ratios for human APLNR binding to purified anti-APLNR monoclonal antibodies were determined by a fluorescence-activated cell sorting (FACS) binding assay. […] The resulting stable cell lines, HEK293/CRE-luc/hAPLNR and HEK293/CRE-luc/MfAPLNR, were maintained in DMEM containing 10% FBS, NEAA, and penicillin/streptomycin with either 100 μg/mL Hygromycin B for hAPLNR cells or 500 μg/mL G418 for MfAPLNR cells.
For the FACS analysis, HEK293 parental, HEK293/CRE-luc/hAPLNR, and, HEK293/CRE-luc/mfAPLNR cells were dissociated using Enzyme Free Dissociation reagent (#S-004, Millipore, Billerica, Mass., USA) and 10^6 cells/well were plated onto 96-well v-bottom plates in PBS containing 1% FBS. […] Cells were then filtered and analyzed on Accuri Flow Cytometer (BD Biosciences, San Jose, Calif., USA). Unstained and secondary antibody alone controls were also tested for binding to all cell lines. […] Geometric mean (Geom. mean) of fluorescence for each antibody was then normalized to geometric mean of unstained cells to obtain relative binding of antibody (binding ratios) per each cell type: HEK293 (parental), HEK293/CRE-luc/hAPLNR and HEK293/CRE-luc/MfAPLNR.

Question: For B1, which “Binding Ratio of Geom. Mean to Unstained Cells, HEK293 Parental” value (from here on “Binding Ratio of Geom. Mean”) is on record?
Answer: Its value is 4.

Question: With B2 as the molecule, how does the “Binding Ratio of Geom. Mean” value read?
Answer: The value was 3.

Question: With B3 as the molecule, how does the “Binding Ratio of Geom. Mean” value read?
Answer: Its value is 2.

Question: How did the “Binding Ratio of Geom. Mean” value turn out when B4 was run?
Answer: The value was 3.

Question: How did the “Binding Ratio of Geom. Mean” value turn out when B5 was run?
Answer: Its value is 4.

Each molecule was assayed against T1, hAPLNR (assay: CRE-luciferase cyclic AMP assay, activation of hAPLNR (inhibition of Forskolin-induced cAMP) in HEK293/CRE-luc/hAPLNR cells). Details: Table 6A; without Apelin; % of maximum Apelin activation.
Format: cell-based
Design: expressed in transfected cells
Method: The ability of anti-APLNR antibodies to activate hAPLNR-mediated cell signaling was measured using a cyclic AMP assay. The hAPLNR is a 7-transmembrane G-protein coupled receptor (GPCR).
(§1) The resulting cell line, HEK293/CRE-luc/hAPLNR, was maintained in DMEM containing 10% FBS, NEAA, pencillin/streptomycin, and 100 μg/mL Hygromycin B.
(§2) Testing of antibodies included a no antibody control.
(§3) The results of all assays were analyzed using nonlinear regression (4-parameter logistics) within Prism 5 software (GraphPad).

Question: B1 was tested. Which “% Activation at 100 nM mAb (at 10 uM Forskolin)” value did it give?
Answer: The value was 12%.

Question: With B2 as the molecule, how does the “% Activation at 100 nM mAb (at 10 uM Forskolin)” value read?
Answer: Its value is “No Activation”.

Question: B3 was tested. Which “% Activation at 100 nM mAb (at 10 uM Forskolin)” value did it give?
Answer: Its value is “No Activation”.

Question: Which “% Activation at 100 nM mAb (at 10 uM Forskolin)” value does the source give for B4 here?
Answer: Its value is “No Activation”.

Question: How did the “% Activation at 100 nM mAb (at 5 uM Forskolin)” value turn out when B6 was run?
Answer: Its value is “No Activation”.

Question: For B7, which “% Activation at 100 nM mAb (at 5 uM Forskolin)” value is on record?
Answer: Its value is “No Activation”.

Question: For B5, which “% Activation at 100 nM mAb (at 10 uM Forskolin)” value is on record?
Answer: The value was “No Activation”.

Question: How did the “% Activation at 100 nM mAb (at 5 uM Forskolin)” value turn out when B8 was run?
Answer: Its value is “No Activation”.

Question: How did the “% Activation at 100 nM mAb (at 5 uM Forskolin)” value turn out when B9 was run?
Answer: Its value is “No Activation”.

Question: For B10, which “% Activation at 100 nM mAb (at 5 uM Forskolin)” value is on record?
Answer: Its value is “No Activation”.

Same assay, conditions: without Apelin; 100 nM highest antibody dose tested

Question: For B1, which “activation of hAPLNR, % of maximum Apelin activation at 100 nM” value is on record?
Answer: The value was 12%.

Each molecule was assayed against T1, hAPLNR (assay: CRE-luciferase cyclic AMP assay, inhibition of hAPLNR in the presence of 100 ρM Apelin in HEK293/CRE-luc/hAPLNR cells). Details: Table 6C.
Format: cell-based
Design: expressed in transfected cells
Method: as §1, §2, §3

Question: For B3, which “% Inhibition at 100 nM antibody, in the presence of 100 ρM Apelin (at 5 μM Forskolin)” value (from here on “% Inhibition at 100 nM antibody”) is on record?
Answer: The value was 11% (IC).

Same assay, conditions: Table 6D

Question: How did the “% Inhibition at 100 nM antibody” value turn out when B6 was run?
Answer: Its value is “No Inhibition”.

Question: With B7 as the molecule, how does the “% Inhibition at 100 nM antibody” value read?
Answer: The value was “No Inhibition”.

Question: How did the “% Inhibition at 100 nM antibody” value turn out when B8 was run?
Answer: The value was “No Inhibition”.

Question: With B9 as the molecule, how does the “% Inhibition at 100 nM antibody” value read?
Answer: The value was “No Inhibition”.

Question: For B10, which “% Inhibition at 100 nM antibody” value is on record?
Answer: Its value is “No Inhibition”.

Same assay, conditions: unmodified anti-APLNR antibodies

Question: Which “inhibition (maximum blockade) of 100 ρM Apelin activation” value (shortened to “inhibition (maximum blockade)”) does the source give for B6 here?
Answer: The value was “did not demonstrate any measurable blockade”.

Question: With B7 as the molecule, how does the “inhibition (maximum blockade)” value read?
Answer: Its value is “did not demonstrate any measurable blockade”.

Question: B8 was tested. Which “inhibition (maximum blockade)” value did it give?
Answer: The value was “did not demonstrate any measurable blockade”.

Question: How did the “inhibition (maximum blockade)” value turn out when B9 was run?
Answer: Its value is “did not demonstrate any measurable blockade”.

Question: B10 was tested. Which “inhibition (maximum blockade)” value did it give?
Answer: Its value is “did not demonstrate any measurable blockade”.

Source: patent US10155811B2, “APLNR modulators and uses thereof” (Regeneron Pharmaceuticals, Inc., priority 2013, dated 2018)
